The values that follow come from US20060263802A1 (CRUCELL HOLLAND B V, published 2006).

Common to all, as to experiment: PEPSCAN ELISA, looped 15-mer, 10 ug/ml
In general terms: ELISA stands for enzyme-linked immunosorbent assay.

Experiment [1] addresses looped peptide […] (rabies virus strain ERA).
Experiment [2] has as its target looped peptide … (rabies virus strain ERA).
In experiment [3] the target is looped peptide […] (rabies virus strain ERA). This is another data set of the same source.
In experiment [4] the target is looped peptide … (rabies virus strain ERA). The source holds these as a separate data set.
Experiment [5] has the same target. This is another data set of the same source.
Experiment [6] shares this target. The source holds these as a separate data set.
Experiment [7] has the same target. This is another data set of the same source.
The target of experiment [8] is looped peptide […] (rabies virus strain ERA). The source holds these as a separate data set.
The target of experiment [9] is looped peptide … (rabies virus strain ERA). The source holds these as a separate data set.
The target in experiment [10] is looped peptide […] (rabies virus strain ERA). This is another data set of the same source.
Experiment [11] has the same target. This is another data set of the same source.
The target of experiment [12] is looped peptide … (rabies virus strain ERA). This is another data set of the same source.
The target of experiment [13] is looped peptide […] (rabies virus strain ERA). This is another data set of the same source.

B1: human monoclonal antibody CRJA (antibody, V domains shown)
VH: EVQLLESGGGLVQPGGSLRLSCAASGFTFSNYAMSWVRQAPGKGLEWVSAISASGHSTYLADSVKGRFTISRDNSKNTLYLQMNSLRAEDTAVYYCAKDREVTMIVVLNGGFDYWGQGTRVTVSS
VL: EIVLTQSPATLSLSPGERATLACRASQTASRYLAWYQQKPGQAPRLLIYDTSNRATGIPARFSGSGSGTDFTLSISSLEPEDFAVYYCQQRFNWPWTFGQGTKVEFK
For the molecule B1, the OD value in experiment [1] is 164; in experiment [2] it was 82; in [3] it was 123; in experiment [4] it was 71; in experiment [5] it was 54; in experiment [6] it was 90. The OD value in experiment [7] came out at 79; in [8] it was 468; in experiment [9], 50; in experiment [10], 320; in experiment [11], 152; in experiment [12] it was 87. This molecule returned an OD value in experiment [13] of 93.
